B1: DNA replication regulator SLD3 (Saccharomyces cerevisiae), P53135 (parent)
chain: METWEVIASVKEATKGLDLSLDHPLIIKSEDVPSNILQLLQQKNRRQLKHICMKSRKEYFLLEEYGPGFWVKWPYNYFNGYSLPERRTEVVTTVERERAKRETLKTWDELKFKELLHLWSEEPKGSCKLEKDKDLKLDMNPPDMKGESKINDYYSDPKEYIESKYYDALFSIHTPLAYFVKSNLVRLKNTCRTKYGSDSYKIAYQAMLQKFLLSIVQFKDRHDNRLLLEPFSSPIADEKRKNCLTKFVIQDENKNSSTIADLCVVLKSREIKLQILLLLEIIGLNDLDWNFRDFEKKYKLKLKKRSLNLTKKGLVRRRSKKKTSEKDKGIERITTSLDYCEQLDLYLDRACILDILLSSETPNPDAIEASNGTIQEHKKNILDKSKEASLVGFINYVLIPYFNKKVPHAVEFIIQKLKGPSMRPKRALKKVNDSTNVSSPNTVETYNRLSTSQRASRSSIINSVPSSPALRRVDANLFSRKSIASPTPELLNSRTNSNLNEFLESETRSLKRPSQLGRTKSDLTMNHLQKRQFSVSDLSTTRVPNSSTITLKTPFSHSTINAYKTMNNSFRRVGKRKDINETIRLHERVDSEENVQVQATPAVKKRTVTPNKKAQLQSIIESPLNFKDDDTHEGRKNTSNITSTPTNKPPENSSKRRVRRRLFAPEST
partner: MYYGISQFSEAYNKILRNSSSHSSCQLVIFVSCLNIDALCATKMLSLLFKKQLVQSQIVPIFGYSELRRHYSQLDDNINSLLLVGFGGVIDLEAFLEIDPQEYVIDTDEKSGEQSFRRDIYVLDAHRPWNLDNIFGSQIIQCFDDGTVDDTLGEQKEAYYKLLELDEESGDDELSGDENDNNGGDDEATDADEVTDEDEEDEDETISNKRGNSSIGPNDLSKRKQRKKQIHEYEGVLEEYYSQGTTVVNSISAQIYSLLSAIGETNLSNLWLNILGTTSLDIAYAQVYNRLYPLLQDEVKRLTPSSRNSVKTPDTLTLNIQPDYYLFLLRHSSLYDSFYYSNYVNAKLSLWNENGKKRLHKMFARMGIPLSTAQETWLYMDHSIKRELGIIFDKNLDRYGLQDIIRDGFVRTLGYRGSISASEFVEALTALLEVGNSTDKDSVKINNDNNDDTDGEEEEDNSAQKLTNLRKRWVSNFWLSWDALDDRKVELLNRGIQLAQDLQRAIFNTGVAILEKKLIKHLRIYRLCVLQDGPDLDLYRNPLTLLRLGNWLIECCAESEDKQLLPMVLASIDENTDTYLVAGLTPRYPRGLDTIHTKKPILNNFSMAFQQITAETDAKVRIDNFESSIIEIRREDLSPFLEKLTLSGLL

In this test the parent is B1. The conditions noted are these: with cdc45_yeast CDC45, Q08032.
Turning to S306D;T310D, the “effect of a mutation on the interaction” value is listed as “disrupting interaction”.

For the origin of these results see IntAct's records for PubMed 20835227.
